T1: GST-Nop58-447 (S. cerevisiae, UniProt Q12499 1-447)
T1 construct: Cloned in pGEX-6P-1 (BamHI-XhoI); source: E. coli BL21(DE3) pRIL, purified (glutathione Sepharose 4B); not shown: GST, N-terminal, kept
T1 sequence (looked up): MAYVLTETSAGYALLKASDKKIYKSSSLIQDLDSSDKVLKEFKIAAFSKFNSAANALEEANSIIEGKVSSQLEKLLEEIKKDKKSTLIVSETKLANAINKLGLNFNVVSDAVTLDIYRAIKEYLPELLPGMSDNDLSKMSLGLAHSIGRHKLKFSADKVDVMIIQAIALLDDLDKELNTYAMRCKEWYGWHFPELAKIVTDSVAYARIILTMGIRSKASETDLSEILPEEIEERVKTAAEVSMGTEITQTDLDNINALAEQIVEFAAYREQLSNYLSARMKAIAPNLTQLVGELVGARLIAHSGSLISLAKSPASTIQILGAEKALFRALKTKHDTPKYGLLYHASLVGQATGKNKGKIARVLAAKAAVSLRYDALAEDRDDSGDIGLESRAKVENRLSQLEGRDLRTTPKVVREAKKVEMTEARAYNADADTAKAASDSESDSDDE

B1: GST-Nop58-C (domain or fragment, S. cerevisiae, UniProt Q12499 285-447, looked up)
chain: PNLTQLVGELVGARLIAHSGSLISLAKSPASTIQILGAEKALFRALKTKHDTPKYGLLYHASLVGQATGKNKGKIARVLAAKAAVSLRYDALAEDRDDSGDIGLESRAKVENRLSQLEGRDLRTTPKVVREAKKVEMTEARAYNADADTAKAASDSESDSDDE
notes: also called pGST-Nop58-C; pGEX-Nop58-C; source: E. coli BL21(DE3) pRIL, purified (glutathione Sepharose 4B; MagneGST Glutathione Particles for the reconstitution with Rvb1/2 or R2TP); not shown: GST, N-terminal, kept
B2: full-length Pih1 (natural protein, S. cerevisiae, UniProt P38768 1-344, looked up)
chain: MADFLLRPIKQRHRNEDKYVSVDAADGSVSKIEPIADFVIKTKLLSANGPEKLQDGRKVFINVCHSPLVPKPEVDFNARIVFPLIIQNEWEIPIITSCYRMDHDKKGQECYVWDCCINSDCSRWICDDIQLREILVEWCLESCEIRDSVVLCRDRIAFPKMKKKGAELPALEVLNDELHQDYKAKMHKIIEEEAGDPMSILRGRNDDGDDNNDPDDGTLPPLFPIENKISGAKIEEIDKNEIAHRNLKQAPAPAPAPHEQQEDVPEYEVKMKRFKGAAYKLRILIENKAPNSKPDRFSPSYNFAENILYINGKLSIPLPRDIVVNAADIKIFHIRKERTLYIYI
notes: Pih1, S. cerevisiae, 344 amino acids
B3: GST-Nop58-MC (domain or fragment, S. cerevisiae, UniProt Q12499 158-447, looked up)
chain: KVDVMIIQAIALLDDLDKELNTYAMRCKEWYGWHFPELAKIVTDSVAYARIILTMGIRSKASETDLSEILPEEIEERVKTAAEVSMGTEITQTDLDNINALAEQIVEFAAYREQLSNYLSARMKAIAPNLTQLVGELVGARLIAHSGSLISLAKSPASTIQILGAEKALFRALKTKHDTPKYGLLYHASLVGQATGKNKGKIARVLAAKAAVSLRYDALAEDRDDSGDIGLESRAKVENRLSQLEGRDLRTTPKVVREAKKVEMTEARAYNADADTAKAASDSESDSDDE
notes: Nop58, S. cerevisiae, middle and C-terminal domains (lacks the N-terminal domain and the KKE/D repeat); start worked out from the forward primer NOP58-472-BamHI-F (nucleotide 472 = codon 158); The forward primer adds an ATG before the first Nop58 codon; also called pGST-Nop58-MC; pGEX-Nop58-MC; source: E. coli BL21(DE3) pRIL, purified (glutathione Sepharose 4B); not shown: GST, N-terminal, kept
B4: GST-Nop58-NM (domain or fragment, S. cerevisiae, UniProt Q12499 1-284, looked up)
chain: MAYVLTETSAGYALLKASDKKIYKSSSLIQDLDSSDKVLKEFKIAAFSKFNSAANALEEANSIIEGKVSSQLEKLLEEIKKDKKSTLIVSETKLANAINKLGLNFNVVSDAVTLDIYRAIKEYLPELLPGMSDNDLSKMSLGLAHSIGRHKLKFSADKVDVMIIQAIALLDDLDKELNTYAMRCKEWYGWHFPELAKIVTDSVAYARIILTMGIRSKASETDLSEILPEEIEERVKTAAEVSMGTEITQTDLDNINALAEQIVEFAAYREQLSNYLSARMKAIA
notes: Nop58, S. cerevisiae, N-terminal and middle domains (lacks the C-terminal domain); end worked out from the reverse primer NOP58-852-XhoI-R (nucleotide 852 = codon 284); also called pGST-Nop58-NM; pGEX-Nop58-NM; source: E. coli BL21(DE3) pRIL, purified (glutathione Sepharose 4B); not shown: GST, N-terminal, kept
B5: Pih1(1–230) (domain or fragment, S. cerevisiae, UniProt P38768 1-230, looked up)
chain: MADFLLRPIKQRHRNEDKYVSVDAADGSVSKIEPIADFVIKTKLLSANGPEKLQDGRKVFINVCHSPLVPKPEVDFNARIVFPLIIQNEWEIPIITSCYRMDHDKKGQECYVWDCCINSDCSRWICDDIQLREILVEWCLESCEIRDSVVLCRDRIAFPKMKKKGAELPALEVLNDELHQDYKAKMHKIIEEEAGDPMSILRGRNDDGDDNNDPDDGTLPPLFPIENKIS
notes: Pih1, S. cerevisiae, N-terminal domain, residues 1-230 of 344; also called N-terminal domain of Pih1

Tests used:
Settings in all cases: both partners purified
Pih1(1–230) = molecular target: B5; test: pull-down; GST-Nop58 variants immobilised on glutathione Sepharose 4B, incubated with Pih1 or Pih1(1–230) 40 min at 30°C in GST lysis buffer (1×PBS, 0.1% NP40, 10% glycerol, 1 mM DTT); washes with 0.5 M NaCl; Ponceau S and Western blot
full-length Pih1 = molecular target: B2; test: as above
Rvb1/Rvb2 complex = molecular target: T2, Rvb1/Rvb2 complex (S. cerevisiae, UniProt Q03940 1-463; Q12464 1-471); test: pull-down; GST-Nop58-C on MagneGST glutathione particles incubated with 0.1 μM preformed Rvb1/2 or R2TP complex at 4°C for 16 h; washed with buffer H with 0.1 M KCl at 23°C; Western blot
T2 construct: Rvb1, S. cerevisiae; Rvb2, S. cerevisiae, untagged; also called Rvb1/2; preformed Rvb1/2; source: E. coli BL21(DE3) pRIL, co-expressed (pCOLADuet-1), purified (Ni-NTA, TEV protease, Superdex 200); not shown: His6 (HV-tag, with TEV site), N-terminal, cleaved
T2 sequence (Q03940 whole entry, chain 1 of 2): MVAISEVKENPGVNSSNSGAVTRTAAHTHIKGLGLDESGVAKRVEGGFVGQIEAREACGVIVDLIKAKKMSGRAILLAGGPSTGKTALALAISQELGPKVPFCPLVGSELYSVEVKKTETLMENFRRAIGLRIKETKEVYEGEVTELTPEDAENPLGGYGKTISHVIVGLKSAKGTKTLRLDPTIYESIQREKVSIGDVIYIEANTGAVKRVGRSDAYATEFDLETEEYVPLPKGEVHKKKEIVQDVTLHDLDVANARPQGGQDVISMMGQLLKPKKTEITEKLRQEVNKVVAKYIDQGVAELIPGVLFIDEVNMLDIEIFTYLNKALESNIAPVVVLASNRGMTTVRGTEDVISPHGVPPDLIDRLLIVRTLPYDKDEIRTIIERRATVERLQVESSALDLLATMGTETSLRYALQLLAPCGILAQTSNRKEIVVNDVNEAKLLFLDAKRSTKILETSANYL
T2 sequence (Q12464 whole entry, chain 2 of 2): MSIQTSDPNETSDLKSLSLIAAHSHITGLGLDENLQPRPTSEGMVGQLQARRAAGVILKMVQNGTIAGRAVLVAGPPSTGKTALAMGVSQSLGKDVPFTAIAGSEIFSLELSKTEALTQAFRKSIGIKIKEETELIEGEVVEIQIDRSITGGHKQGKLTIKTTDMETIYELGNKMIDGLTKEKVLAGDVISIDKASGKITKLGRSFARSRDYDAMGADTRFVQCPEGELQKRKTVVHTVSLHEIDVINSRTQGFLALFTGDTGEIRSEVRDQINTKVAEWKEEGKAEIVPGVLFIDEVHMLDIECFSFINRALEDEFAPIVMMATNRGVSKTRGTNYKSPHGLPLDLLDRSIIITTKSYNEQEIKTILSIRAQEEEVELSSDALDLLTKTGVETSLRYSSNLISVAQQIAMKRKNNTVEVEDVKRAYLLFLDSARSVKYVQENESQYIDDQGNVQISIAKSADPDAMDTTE

[1] = molecular target: T3, R2TP complex (recombinant, preformed) (S. cerevisiae, UniProt Q03940 1-463; Q12464 1-471; P25638 1-111; P38768 1-344); test: as above
T3 construct: Rvb1, S. cerevisiae; Rvb2, S. cerevisiae, untagged; Tah1, S. cerevisiae; Pih1, S. cerevisiae, untagged; also called preformed R2TP complex purified from E. coli; source: preformed complex purified from E. coli; not shown: His6 (HV-tag, with TEV site), N-terminal, cleaved; copies: + + +
T3 sequence (Q03940 whole entry, chain 1 of 3): as the sequence (Q03940 whole entry, chain 1 of 2) above
T3 sequence (Q12464 whole entry, chain 2 of 3): as the sequence (Q12464 whole entry, chain 2 of 2) above
T3 sequence (P25638 whole entry, chain 3 of 3): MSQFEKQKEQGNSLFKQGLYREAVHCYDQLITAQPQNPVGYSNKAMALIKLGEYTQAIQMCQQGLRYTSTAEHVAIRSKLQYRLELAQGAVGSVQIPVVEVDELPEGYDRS

GST-Nop58-447 = molecular target: T1, GST-Nop58-447; test: pull-down; GST-Nop58 variants immobilised on glutathione Sepharose 4B, incubated with Pih1 or Pih1(1–230) 40 min at 30°C in GST lysis buffer (1×PBS, 0.1% NP40, 10% glycerol, 1 mM DTT); washes with 0.5 M NaCl; Ponceau S and Western blot
GST-Nop58-MC = molecular target: B3; test: as above
GST-Nop58-NM = molecular target: B4; test: as above

| Binder | binding result (full-length Pih1) | binding result (GST-Nop58-447) | also measured |
| --- | --- | --- | --- |
| B1 | binds | – | binding result (Pih1(1–230)): binds; binding result (Rvb1/Rvb2 complex): binds; binding result [1]: binds |
| B2 | – | binds | – |
| B3 | binds | – | – |
| B4 | binds | – | – |
| B5 | – | binds | binding result (GST-Nop58-MC): binds; binding result (GST-Nop58-NM): binds |
